Measured values published in article PMC7933130 (Nature, 2021).

Biological target: the molecule itself
Assay: SEC-MALS

B1: human Na+-dependent citrate transporter NaCT (SLC13A5), wildtype (natural protein)
chain: not shown
modifications: one glycan unit connected to Asn562 (N-glycosylation site)
  stoichiometry N: 2
